Data published in US20250304713A1, “COMBINATION IMMUNOTHERAPY COMPOSITIONS AND METHODS OF USE THEREOF” (THE PENN STATE RESEARCH FOUNDATION, priority 2022, published 2025).

What was measured:
[1] = system: 9464D-GD2 cells; assay: Cell viability, CellTiter-Glo; format: cell-based, mouse; settings: 0.1 μM tipifarnib; 24, 48, 72 h
Experimental: 9464D-GD2 cells were seeded in a white, opaque 96-well plate. The following day, cells were treated with increasing doses of tipifarnib, and cell viability was measured at 24, 48 and 72 hours post-treatment using the CellTiter-Glo® Luminescent Cell Viability Assay (Promega, G7573) according to manufacturer's instructions. Microplate luminescence was measured using a CLARIOstar (BMG Labtech) plate reader. All data were normalized to non-treated controls. 9464D cells or 9464D crRab27a cells were plated at a density of 5000 cells/well in a 96-well plate and monitored for confluence using the Incucyte S3 μLive Cell Imaging System (Sartorius). The percent cell confluence was quantified using Incucyte Basic Cell Analysis package (Sartorius).

[2] = system: 9464D-GD2 tumors; assay: 9464D-GD2 syngeneic subcutaneous neuroblastoma model, tumor growth, volume and weight; format: in vivo, mouse
Experimental: (§1) All animal studies were performed according to guidelines established by the Institutional Animal Care and Use Committee (IACUC) at the Penn State College of Medicine (Hershey, PA). An immunocompetent mouse model of neuroblastoma was generated by subcutaneously injecting 1×10^6 9464D-GD2 cells in a 50:50 mixture of DMEM and Matrigel (Corning, 354234) into C57BL/6J mice (8- to 10-week-old, JAX 000664) with male and female mice represented at an equal ratio. One week following tumor cell inoculation, mice were randomized into treatment groups. Where indicated, mice were treated twice-weekly by tail-vein injection with PBS (100 μL), dinutuximab ([…] in 100 μL PBS), purified sEVs from 9464D-GD2 cells ([…] in 100 μL PBS), or the combination of dinutuximab and sEVs. Where indicated, tipifarnib (25 mg/kg) or an equivalent volume of vehicle was administered twice daily by oral gavage. Primary tumor growth was monitored by measuring tumor volume using calipers (volume=π(length*width^2)/6). At the experimental endpoint, mice were euthanized, and tumor, blood, spleen and bone marrow were harvested for ex vivo analysis. Endpoint tumor volume was calculated by measuring tumors using calipers (volume=π(length*width*height)/6).

[3] = system: tumor-infiltrating NK cells, T-cells and tumor-associated macrophages in 9464D-GD2 tumors; assay: Flow cytometry of tumor-infiltrating immune cells (NK cells, T-cells, TAMs); format: in vivo, mouse
Experimental: (§2) Murine tumors and spleens were harvested at the experimental endpoint and mechanically disassociated. Tumors were further digested with tumor digestion buffer ([…] Collagenase Type I (Thermo Fisher, 17018029) and 2000 Units/ml DNase (Sigma-Aldrich, DN25-100MG) in HBSS buffer at room temperature for 1 hour. Dissociated tumor cells and spleen cells were passed through a 70 μm cell strainer (Falcon BD, 352350), pelleted, and washed once with PBS supplemented with 1% FBS. Red blood cells were lysed with RBC lysis buffer (0.0155 M NH4Cl, 1.2 mM NaHCO3, 0.01 mM Na2EDTA, pH 7.4 in distilled water) for 3 minutes on ice and neutralized with PBS supplemented with 10% FBS. Cells were centrifuged and resuspended in FACS buffer to obtain single cell suspensions.
as §1
For cell surface staining, approximately 1×10^6 cells were stained with pre-mixed antibody cocktail panels (Table 1) in 100 μL FACS buffer (1% FBS, 0.2% NaN3 in PBS) for 30 minutes on ice. Cells were washed twice with FACS buffer and fixed with 2% paraformaldehyde (Fisher Scientific, 50-980-487) for 15 minutes. Fixed cells were washed once with PBS and resuspended in 0.5 mL FACS buffer for flow cytometric analysis using a LSR II or Symphony flow cytometer (BD Biosciences). Compensation was performed using UltraComp eBeads™ compensation beads (Invitrogen). FlowJo™ v10 (FlowJo, LLC) software was used for data analysis.

[4] = system: NK cells (NK1.1+CD3-) in blood; assay: Flow cytometry of blood NK cells of tumor-bearing mice; format: in vivo, mouse
Experimental: as §1, with “(volume=π(length*width*height)/6). […]” for “(volume=π(length*width*height)/6).”

[5] = system: splenic NK cells; assay: Flow cytometry of splenic NK cell subpopulations (maturation); format: in vivo, mouse
Experimental: as §2
as §1, with “(volume=π(length*width*height)/6). […]” for “(volume=π(length*width*height)/6).”

[6] = day 24, treatment as FIG. 4D (FIG. 5A)
[7] = day 30, treatment as FIG. 1D (FIG. 3C)

## Cn1cncc1[C@@](N)(c1ccc(Cl)cc1)c1ccc2c(c1)c(-c1cccc(Cl)c1)cc(=O)n2C [tipifarnib]
[1]
  cytotoxicity (cell viability): absence of cytotoxicity

B1: dinutuximab (antibody, chains of the INN, looked up, V domains shown)
VH: EVQLLQSGPELEKPGASVMISCKASGSSFTGYNMNWVRQNIGKSLEWIGAIDPYYGGTSYNQKFKGRATLTVDKSSSTAYMHLKSLTSEDSAVYYCVSGMEYWGQGTSVTVSS
VL: EIVMTQSPATLSVSPGERATLSCRSSQSLVHRNGNTYLHWYLQKPGQSPKLLIHKVSNRFSGVPDRFSGSGSGTDFTLKISRVEAEDLGVYFCSQSTHVPPLTFGAGTKLELK
notes: chimeric monoclonal antibody against the disialoganglioside GD2
[2]; dinutuximab 1.25 mg/kg and/or 9464D-GD2 sEVs 20 μg, tail vein twice weekly from one week post-inoculation, to day 30, vs PBS (FIG. 1E)
  tumor growth (tumor volume over time): dramatically suppressed tumor growth
[2]; dinutuximab and/or tipifarnib with or without sEVs, day 24 (FIG. 6B-D)
  tumor growth and weight, sEV rescue experiment: mild anti-tumor activity alone
[3]; [6]
  TAM population (CD11b+F4/80+): decreasing TAMs
  tumor-infiltrating NK cells (NK1.1+CD3-): enhancing the mobilization of NK cells and percentages of tumor-infiltrating NK cells and T-cells
  tumor-infiltrating T-cells (CD3+NK1.1-): enhancing the mobilization of NK cells and percentages of tumor-infiltrating NK cells and T-cells
[3]; day 30, treatment as FIG. 1D (FIG. 2E bottom)
  tumor-associated macrophage (TAM) population (CD11b+F4/80+): significantly decreased the TAM population
[3]; day 30, treatment as FIG. 1D (FIG. 2E top)
  tumor-infiltrating NK cell population (NK1.1+CD3-): significantly increased the tumor-infiltrating NK cell population
[4]; day 24, treatment as FIG. 4D (FIG. 5B)
  level of circulating NK cells (mobilization): enhancing the mobilization of NK cells
[4]; day 30, treatment as FIG. 1D (FIG. 2F)
  percentage of serum (blood) NK cells, NK cell mobilization: significant increase in the percentage of serum NK cells
[5]; day 24, treatment as FIG. 4D, vs control or tipifarnib alone (FIG. 5C)
  percentage of mature NK cells in the spleen (CD27-CD11b+): significantly increased the percentage of mature NK cells in the spleen
[5]; [7]
  percentage of mature splenic NK cells (CD27-CD11b+): increased the percentage of mature splenic NK cells
  percentage of splenic NK cells with immature phenotype (CD27+CD11b-): significantly decreased the percentage of splenic NK cells with an immature phenotype
